# T1: Kapβ2 (ΔLoop, residues 321–371 were replaced with GGSGGSGS linker) (UniProt Q92973-2 1-320; Q92973-2 372-890)
# T1 construct: karyopherin-β2 (Kapβ2), the part before the loop, up to residue 320; linker that replaces residues 321–371; karyopherin-β2 (Kapβ2), the part after the loop, from residue 372; source: E. coli BL21(DE3), purified; not shown: GST, N-terminal, cleaved
# T1 chain: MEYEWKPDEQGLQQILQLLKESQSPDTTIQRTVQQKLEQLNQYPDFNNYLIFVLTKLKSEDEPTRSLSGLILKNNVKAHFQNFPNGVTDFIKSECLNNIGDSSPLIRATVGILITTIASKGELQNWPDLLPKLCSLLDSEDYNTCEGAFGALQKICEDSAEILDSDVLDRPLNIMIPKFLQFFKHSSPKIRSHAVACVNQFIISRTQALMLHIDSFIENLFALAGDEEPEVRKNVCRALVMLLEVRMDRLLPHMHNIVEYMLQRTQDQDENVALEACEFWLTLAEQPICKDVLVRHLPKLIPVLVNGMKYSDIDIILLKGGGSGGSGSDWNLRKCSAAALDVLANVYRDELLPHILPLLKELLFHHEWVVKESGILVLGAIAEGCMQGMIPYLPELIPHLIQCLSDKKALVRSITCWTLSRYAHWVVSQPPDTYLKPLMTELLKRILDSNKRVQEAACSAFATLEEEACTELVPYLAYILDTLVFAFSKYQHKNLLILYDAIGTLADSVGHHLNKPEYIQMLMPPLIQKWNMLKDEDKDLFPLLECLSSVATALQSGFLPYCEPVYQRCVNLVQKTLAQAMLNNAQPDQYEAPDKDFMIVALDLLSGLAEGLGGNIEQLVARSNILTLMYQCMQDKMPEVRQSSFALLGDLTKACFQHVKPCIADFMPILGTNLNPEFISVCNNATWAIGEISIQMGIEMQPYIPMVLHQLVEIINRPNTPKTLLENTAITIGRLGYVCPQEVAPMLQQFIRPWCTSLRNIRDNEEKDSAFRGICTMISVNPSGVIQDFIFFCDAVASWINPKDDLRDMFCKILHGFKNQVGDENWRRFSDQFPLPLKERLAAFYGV
# T2: karyopherin-β2 (Kapβ2) (UniProt Q92973 1-898, for NMR: [U-2H; Ile-δ1-13CH3; Leu, Val-13CH3/12CH3]-labeled)
# T2 construct: karyopherin-β2 (Kapβ2), nuclear import receptor; Expressed as GST fusion from pGEX6P-1; also called isotopically labeled Kapβ2; source: E. coli BL21(DE3), purified (GSH Sepharose, HRV3C cleavage, anion exchange, gel filtration); not shown: GST, N-terminal, cleaved
# T2 sequence (looked up): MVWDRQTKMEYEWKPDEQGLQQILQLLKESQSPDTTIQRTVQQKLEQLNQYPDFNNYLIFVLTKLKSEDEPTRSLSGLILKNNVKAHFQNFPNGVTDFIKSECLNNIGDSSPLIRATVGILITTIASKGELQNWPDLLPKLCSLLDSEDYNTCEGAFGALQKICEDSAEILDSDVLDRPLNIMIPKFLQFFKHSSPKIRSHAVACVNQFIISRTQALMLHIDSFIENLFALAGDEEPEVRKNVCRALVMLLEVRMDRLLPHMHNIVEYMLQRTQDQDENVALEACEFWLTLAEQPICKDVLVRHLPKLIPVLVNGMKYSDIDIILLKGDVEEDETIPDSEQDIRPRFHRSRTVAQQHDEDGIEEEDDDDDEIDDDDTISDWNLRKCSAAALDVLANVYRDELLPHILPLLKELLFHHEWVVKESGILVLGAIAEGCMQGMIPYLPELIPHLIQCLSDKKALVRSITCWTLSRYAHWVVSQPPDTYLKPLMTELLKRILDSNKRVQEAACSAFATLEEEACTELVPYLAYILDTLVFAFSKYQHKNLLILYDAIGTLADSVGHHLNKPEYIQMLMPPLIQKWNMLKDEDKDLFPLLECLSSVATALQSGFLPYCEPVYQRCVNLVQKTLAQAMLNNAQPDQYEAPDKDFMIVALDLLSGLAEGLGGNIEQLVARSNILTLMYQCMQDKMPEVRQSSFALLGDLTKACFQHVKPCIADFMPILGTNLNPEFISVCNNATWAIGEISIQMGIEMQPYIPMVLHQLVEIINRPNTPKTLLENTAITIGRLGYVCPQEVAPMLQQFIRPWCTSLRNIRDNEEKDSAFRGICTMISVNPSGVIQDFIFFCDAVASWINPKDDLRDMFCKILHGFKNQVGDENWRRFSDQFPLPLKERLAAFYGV
# T3: mCh:FUS-LC (mCherry fusion LC-domain of FUS, residue 2–214), as hydrogel (UniProt P35637 2-214)
# T3 construct: fused in sarcoma (FUS), LC-domain, residue 2–214; Polymerised in the hydrogel; plasmid from the Steven L. McKnight Laboratory; source: E. coli BL21(DE3), purified (Ni-NTA Agarose), prepared as hydrogel droplets; not shown: mCherry, N-terminal, kept
# T3 sequence (looked up): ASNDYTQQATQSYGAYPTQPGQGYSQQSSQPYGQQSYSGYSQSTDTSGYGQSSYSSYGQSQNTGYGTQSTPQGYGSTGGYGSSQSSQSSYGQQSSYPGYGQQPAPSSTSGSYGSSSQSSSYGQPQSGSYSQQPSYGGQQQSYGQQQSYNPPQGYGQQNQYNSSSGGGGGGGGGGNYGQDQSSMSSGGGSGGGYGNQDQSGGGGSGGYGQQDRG
# Key:
# Conditions in all cases: both partners purified
# [1] = molecular target: T1, Kapβ2 (ΔLoop, residues 321–371 were …); experiment: ITC; 200 μM MBP:PR18 titrated into 20 μM Kapβ2 (ΔLoop) in the cell; 25 °C; 20 mM HEPES pH 7.4, 150 mM NaCl, 10% glycerol, 2 mM β-mercaptoethanol; 19 injections of 2 μL
# karyopherin-β2 (Kapβ2) = molecular target: T2, karyopherin-β2 (Kapβ2); experiment: SEC-MALS; Superdex200 10/300 GL; 28 µM Kapβ2 injected in the absence and presence of 55 µM MBP:PR18; 20 mM HEPES pH 7.4, 150 mM NaCl, 2 mM MgCl2, 10% glycerol, 2 mM β-mercaptoethanol
# [2] = molecular target: T3, mCh:FUS-LC (mCherry fusion LC-domain of …); experiment: hydrogel binding assay; 1 µM purified GFP-fused protein pipetted onto hydrogel droplets of the mCherry-fused LC-domain, overnight, confocal microscopy; ± Kapβ2 (0.1, 0.3, 1.0 µM) ± PR20; 20 mM Tris-HCl pH 7.5, 150 mM NaCl, 20 mM β-mercaptoethanol, 0.1 mM PMSF, 0.5 mM EDTA
Kd [1],stoichiometry N (karyopherin-β2 (Kapβ2)),binding result [2],Binder
81.3 nM,1,,"PRPRPRPRPRPRPRPRPRPRPRPRPRPRPRPRPRPR (proline:arginine poly-dipeptide from the C9orf72 repeat expansion; source: E. coli BL21(DE3), purified (amylose resin, cation exchange, gel filtration); not shown: MBP, N-terminal, kept) [MBP:PR18 (18 repeats of Pro-Arg)]"
,,binds,"GFP:FUS-LC:NLS (GFP:FUS-LC fusion FUS-NLS, 501–526) (domain or fragment, UniProt P35637 2-214, looked up, fused in sarcoma (FUS), LC-domain, residue 2–214; fused in sarcoma (FUS), NLS, residue 501–526; Built with the In-Fusion HD Cloning Kit; also called FUS-LC fusion NLS; source: E. coli BL21(DE3), purified (Ni-NTA Agarose); not shown: GFP, N-terminal, kept) ASNDYTQQATQSYGAYPTQPGQGYSQQSSQPYGQQSYSGYSQSTDTSGYGQSSYSSYGQSQNTGYGTQSTPQGYGSTGGYGSSQSSQSSYGQQSSYPGYGQQPAPSSTSGSYGSSSQSSSYGQPQSGSYSQQPSYGGQQQSYGQQQSYNPPQGYGQQNQYNSSSGGGGGGGGGGNYGQDQSSMSSGGGSGGGYGNQDQSGGGGSGGYGQQDRGGDRGGFGPGKMDSRGEHRQDRRERPY"
,,binds,"GFP:FUS-LC (green fluorescent protein fusion LC-domain of FUS, residue 2–214) (domain or fragment, UniProt P35637 2-214, looked up, fused in sarcoma (FUS), LC-domain, residue 2–214; Plasmid from the Steven L. McKnight Laboratory; source: E. coli BL21(DE3), purified (Ni-NTA Agarose); not shown: GFP, N-terminal, kept) ASNDYTQQATQSYGAYPTQPGQGYSQQSSQPYGQQSYSGYSQSTDTSGYGQSSYSSYGQSQNTGYGTQSTPQGYGSTGGYGSSQSSQSSYGQQSSYPGYGQQPAPSSTSGSYGSSSQSSSYGQPQSGSYSQQPSYGGQQQSYGQQQSYNPPQGYGQQNQYNSSSGGGGGGGGGGNYGQDQSSMSSGGGSGGGYGNQDQSGGGGSGGYGQQDRG"

# From publication PMC8421406, “C9orf72-derived arginine-rich poly-dipeptides impede phase modifiers” (Nature Communications, 2021)
